According to patent US7589167B2, “ZA loops of bromodomains” (J. David Gladstone Institutes, priority 2000, dated 2009):
“Also recorded” adds a separate entry of the source. Read-outs that look alike come from different tables or passages of the source. Where no end group is shown, it is not given here.

Legend:
[1] = target: T1, P/CAF bromodomain (Homo sapiens, UniProt Q92831, P804A/P805A); assay: NMR ligand titration (2D 15N-/13C-HSQC chemical shift changes) of the P/CAF bromodomain; format: binding; settings: for binding to the P/CAF bromodomain (qualitative): NMR titration, chemical shift changes
T1 construct: poly-His (N, cleaved yes); made in house; host or cells: Escherichia coli BL21(DE3)
T1 sequence (Q92831 719-832 P804A/P805A): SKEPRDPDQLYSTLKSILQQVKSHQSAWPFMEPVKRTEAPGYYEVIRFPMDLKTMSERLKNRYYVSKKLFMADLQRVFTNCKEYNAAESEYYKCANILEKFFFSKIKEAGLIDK
Method: (§1) NMR spectroscopy: All NMR spectra were acquired at 30° C. on a Bruker DRX600 or DRX500 spectrometer. The backbone assignments of the ^1H, ^13C, and ^15N resonances were achieved using deuterium-decoupled triple-resonance experiments of HNCACB and HN(CO)CACB [Yamazaki et al., J. Am. Chem. Soc. 116:11655-11666 (1994)] recorded using the uniformly ^15N/^13C-labeled and fractionally deuterated protein. The side-chain atoms were assigned from 3D HCCH-TOCSY [Clore and Gronenbom, Meth. Enzymol. 239:249-363 (1994)] and (H)C(CO)NH-TOCSY [Logan et al., J. Biolmol. NMR 3:225-231 (1993)] data collected on the uniformly ^15N/^13C-labeled protein. Stereospecific assignments of methyl groups of the Val and Leu residues were obtained using a fractionally ^13C-labeled sample [Neri et al., Biochemistry 28:7510-7516 (1989)]. The NOE-derived distance restraints were obtained from ^15N- or ^13C-edited 3D NOESY spectra. φ-angle restraints were determined based on the ^3JHn,Hα coupling constants measured in a 3D H spectrum [Clore and Gronenbom, Meth. Enzymol. 239:249-363 (1994)]. Slowly exchanging amide protons were identified from a series of 2D ^15N-HSQC spectra recorded after the H2O buffer was changed to a ^2H2O buffer. The intermolecular NOEs used in defining the structure of the bromodomain/Ac-histamine complex were detected in ^13C-edited (F1), ^13C/^15N-filtered (F3) 3D NOESY spectrum [Clore and Gronenbom, Meth. Enzymol. 239:249-363 (1994)]. All NMR spectra were processed with the NMRPipe/NMRDraw programs and analyzed using NMRView [Johnson and Blevins, J. Biomol., NMR 4:603-614 (1994)].
(§2) Ligand titration: Ligand titration experiments were performed by recording a series of 2D ^15N—- and ^13C-HSQC spectra on the uniformly ^15N-, and ^15N/^13C-labelled bromodomain (˜0.3 mM), respectively, in the presence of different amounts of ligand concentration ranging from 0 to approximately 2.0 mM. The protein sample and the stock solutions of the ligands were all prepared in the same aqueous buffer containing 100 mM phosphate and 5 mM perdeuterated DTT at pH 6.5.
as §1, with “the uniformly ^15N/^13C-labelled and fractionally” for “the uniformly ^15N/^13C-labeled and fractionally”, “of the valine and leucine” for “of the Val and Leu”, “valine and leucine residues were” for “Val and Leu residues were”, “3D NOESY spectra [Clore and Gronenbom, Meth. Enzymol. 239:249-363 (1994)]. φ-angle restraints” for “3D NOESY spectra. φ-angle restraints”, “on the ^3JHN,H coupling constants” for “on the ^3JHn,Hα coupling constants”, “a 3D HNHA spectrum [Clore” for “a 3D H spectrum [Clore”
Ligand titration experiments were performed by recording a series of 2D ^15N-HSQC spectra on the uniformly ^15N-labelled bromodomain (˜0.3 mM), respectively, in the presence of different amounts of ligand concentration ranging from 0 to ˜2.0 mM.

[2] = tested on: biotinylated and lysine-acetylated Tat peptide; assay: Mutational analysis: binding of P/CAF bromodomain mutant proteins to immobilized lysine-acetylated Tat peptide; parameters: species or system HIV-1; settings: peptide immobilized onto streptavidin agarose
Method: Site directed mutagenesis. Site directed mutagenesis was performed on selected residues of P/CAF Bromodomain using quick-change kit (Stratagene). The mutants were confirmed by sequencing and proteins were expressed and purified as above.
Peptide binding assay. Equal amount (10 μM) of GST, GST-P/CAF bromodomain and its mutant proteins, as well as various GST-fusion bromodomains from CBP and TIF1β were incubated for at least two hours at room temperature with the N-terminal biotinylated and lysine-acetylated Tat peptide (50 μM) in a 50 mM Tris buffer of pH 7.5, containing 50 mM NaCl, 0.1% BSA and 1 mMDTT. Streptavidin agarose (10 μL) was added to mixture and the beads were washed twice in the Tris buffer with 500 mM NaCl and 0.1% NP-40. Proteins were eluted from the argarose beads in SDS buffer and separated on a 14% SDS-PAGE. The resolved proteins were transferred onto nitrocellulose membrane (Pharmacia), and the membrane was blocked overnight with 5% non-fat milk in washing buffer of 20 mM Tris, pH 7.5, plus 150 mM NaCl and 0.1% Tween-20 at 4° C. Western blotting was performed with anti-GST antibody (Sigma) and goat anti-rabbit IgG conjugated with horseradish-peroxidase (Promega) and developed by chemiluminescence. Peptide competition experiments were performed by incubating various non-biotinylated and mutant Tat peptide with the P/CAF bromodomain and the biotinylated and wild type Tat peptide. The molar ratio of the wild type and mutant Tat peptides in the mixture were kept at 1:2. The binding results were analyses by using the procedure as described above.
To identify the amino acid residues of the P/CAF bromodomain that are important for complex formation, mutant proteins were tested for binding to the biotinylated and lysine-acetylated Tat peptide that is immobilized onto streptavidin agarose (FIG. 10A). […] The results from the mutational analysis agree with the observations of intermolecular NOEs in the NMR spectra.

[3] = Structural integrity of P/CAF bromodomain mutants by 15N-HSQC spectra; format: physicochemical; parameters: key: ++++: as stable as the wild-type; +++: mildly destabilized; ++: moderately destabilized; −: completely unfolded; settings: relative to wild-type
Method: (§3) Site-directed mutagenesis: Mutant proteins were prepared using the QuickChange site-directed mutagenesis kit (Stratagene). The presence of appropriate mutations was confirmed by DNA sequencing.

[4] = tested on: lysine-acetylated H4 peptide; assay: NMR titration of wild-type and mutant P/CAF bromodomain proteins with the H4 AcK peptide; format: binding; settings: for binding of bromodomain mutants to the lysine-acetylated H4 peptide (qualitative): NMR titration; for Kd: read-out: H4 AcK-Peptide Binding KD
Method: as §3, §2

[5] = target: T2, P/CAF (Homo sapiens, UniProt Q92831); assay: Western blot assay to detect P/CAF interaction with the Tat protein in cells; format: cell-based; settings: FLAG-Tat, HA-P/CAF
T2 construct: HA; expressed in transfected cells
From the text: FIGS. 8A-8B show a western blot assay to detect P/CAF interaction with the Tat protein. Note that the protein-protein interaction was only observed with the wild type Tat but not with the Tat K50R/K51R mutant protein. The FLAG was joined to the Tat peptide, whereas the HA-tag was joined to P/CAF.

[6] = tested on: Tat transactivation activity; assay: Superinduction of Tat transactivation activity by P/CAF; format: cell-based, HIV-1
From the text: FIG. 7 is a bar graph of the measurement of superinduction of Tat transactivation activity by P/CAF. Tat-KK is the wild type Tat protein, and Tat-RR is the double mutant Tat carrying lysine to arginine mutations at K50 and K51 positions.

[7] = estimated from amide chemical shift changes in 15N-HSQC vs ligand concentration

T2 sequence (Q92831 whole entry): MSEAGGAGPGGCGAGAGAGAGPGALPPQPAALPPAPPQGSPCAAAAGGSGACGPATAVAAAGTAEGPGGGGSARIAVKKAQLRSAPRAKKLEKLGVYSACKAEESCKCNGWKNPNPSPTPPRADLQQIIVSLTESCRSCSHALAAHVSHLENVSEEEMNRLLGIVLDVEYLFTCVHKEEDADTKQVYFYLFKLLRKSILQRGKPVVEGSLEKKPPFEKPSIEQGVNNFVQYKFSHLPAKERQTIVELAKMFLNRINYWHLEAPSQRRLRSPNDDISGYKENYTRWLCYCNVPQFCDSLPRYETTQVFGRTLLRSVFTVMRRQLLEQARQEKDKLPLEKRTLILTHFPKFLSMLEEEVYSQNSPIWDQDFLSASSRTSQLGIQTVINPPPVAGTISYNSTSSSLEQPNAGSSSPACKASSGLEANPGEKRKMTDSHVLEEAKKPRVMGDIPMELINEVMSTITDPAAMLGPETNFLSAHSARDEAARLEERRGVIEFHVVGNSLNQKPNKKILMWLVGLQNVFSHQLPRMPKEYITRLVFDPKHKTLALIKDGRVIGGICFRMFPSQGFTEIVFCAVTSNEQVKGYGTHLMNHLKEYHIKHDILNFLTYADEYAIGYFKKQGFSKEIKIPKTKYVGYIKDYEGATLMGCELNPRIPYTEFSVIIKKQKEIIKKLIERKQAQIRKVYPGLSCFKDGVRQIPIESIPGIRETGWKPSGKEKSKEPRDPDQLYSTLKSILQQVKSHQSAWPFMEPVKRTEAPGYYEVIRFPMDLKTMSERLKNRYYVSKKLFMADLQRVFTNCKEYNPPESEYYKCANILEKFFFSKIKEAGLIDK

Molecule: CC(=O)NCCCC[C@H](NC(=O)CNC(=O)CNC(=O)[C@H](CCCCN)NC(=O)CNC(=O)[C@H](CCCNC(=N)N)NC(=O)CNC(=O)[C@@H](N)CO)C(=O)NCC(=O)N[C@@H](CC(C)C)C(=O)NCC(=O)N[C@@H](CCCCN)C(=O)O [SGRGKGG-AcK-GLGK]
- Kd ([1]; estimated from NMR titration, 15N-HSQC, pH 6.5, 30° C., read-out: dissociation constant (KD)): 346 ± 54 µM

Molecule: SYGRK(Ac)KRRQRC [Tat AcK50 peptide, SYGR-AcK-KRRQRC]
- Kd [1]: ~20 µM

Molecule: CC(=O)N[C@@H](CCCCN)C(=O)O [acetyl-lysine]
- binding to the P/CAF bromodomain (qualitative) [1]: did not bind; also recorded: does not appear to bind

Molecule: QSTSRHK-AcK-LMFKTE (QSTSRHKXLMFKTE; acetyl-lysine; synthetic bromodomain peptide)
- binding to the P/CAF bromodomain (qualitative) [1]: bind to the P/CAF bromodomain

Molecule: CC(=O)N[C@@H](Cc1c[nH]cn1)C(=O)O [acetyl-histidine]
- binding to the P/CAF bromodomain (qualitative) [1]: did not bind; also recorded: does not to bind

Molecule: ARKSTGG-AcK-APRKQL (ARKSTGGXAPRKQL; acetyl-lysine; synthetic bromodomain peptide)
- binding to the P/CAF bromodomain (qualitative) [1]: bind to the P/CAF bromodomain

Molecule: CC(=O)NCCc1cnc[nH]1 [acetyl-histamine]
- binding to the P/CAF bromodomain (qualitative) [1]: chemical shift perturbations with similar concentration dependence and does

Molecule: ISYGR-AcK-KRRQRR
- binding to the P/CAF bromodomain (qualitative) [1]: bind to the P/CAF bromodomain

B1: Tyr809Ala: P/CAF bromodomain point mutant, Tyr809 to Ala (protein)
chain: SKEPRDPDQLYSTLKSILQQVKSHQSAWPFMEPVKRTEAPGYYEVIRFPMDLKTMSERLKNRYYVSKKLFMADLQRVFTNCKEYNAAESEAYKCANILEKFFFSKIKEAGLIDK
- binding of alanine point mutants to the Tat AcK50 peptide (qualitative) [2]: nearly complete loss or significantly reduced binding
- Structural Integrity [3]: ++++
- binding of bromodomain mutants to the lysine-acetylated H4 peptide (qualitative) [4]: completely abrogated
- H4 AcK-Peptide Binding KD (μM) [4, 7]: No Binding ^c

B2: Tyr802Ala: P/CAF bromodomain point mutant, Tyr802 to Ala (protein)
chain: SKEPRDPDQLYSTLKSILQQVKSHQSAWPFMEPVKRTEAPGYYEVIRFPMDLKTMSERLKNRYYVSKKLFMADLQRVFTNCKEANAAESEYYKCANILEKFFFSKIKEAGLIDK
- binding of alanine point mutants to the Tat AcK50 peptide (qualitative) [2]: nearly complete loss or significantly reduced binding
- Structural Integrity [3]: +++
- binding of bromodomain mutants to the lysine-acetylated H4 peptide (qualitative) [4]: significantly reduced ligand binding affinity
- Kd [4, 7]: > 10000 µM

B3: Val752Ala (protein)
chain: SKEPRDPDQLYSTLKSILQQVKSHQSAWPFMEPAKRTEAPGYYEVIRFPMDLKTMSERLKNRYYVSKKLFMADLQRVFTNCKEYNAAESEYYKCANILEKFFFSKIKEAGLIDK
- binding of alanine point mutants to the Tat AcK50 peptide (qualitative) [2]: nearly complete loss or significantly reduced binding
- Structural Integrity [3]: ++
- binding of bromodomain mutants to the lysine-acetylated H4 peptide (qualitative) [4]: significantly reduced ligand binding affinity
- Kd [4, 7]: > 10000 µM

B4: Wild-Type: wild-type bromodomain of P/CAF (residues 719-832 of SEQ ID NO:2) (protein, listed as Homo sapiens)
chain: SKEPRDPDQLYSTLKSILQQVKSHQSAWPFMEPVKRTEAPGYYEVIRFPMDLKTMSERLKNRYYVSKKLFMADLQRVFTNCKEYNAAESEYYKCANILEKFFFSKIKEAGLIDK
- Structural Integrity [3]: ++++
- Kd [4, 7]: 346 ± 54 µM

B5: Tyr760Ala: P/CAF bromodomain point mutant, Tyr760 to Ala (protein)
chain: SKEPRDPDQLYSTLKSILQQVKSHQSAWPFMEPVKRTEAPGAYEVIRFPMDLKTMSERLKNRYYVSKKLFMADLQRVFTNCKEYNAAESEYYKCANILEKFFFSKIKEAGLIDK
- Structural Integrity [3]: +++
- binding of bromodomain mutants to the lysine-acetylated H4 peptide (qualitative) [4]: significantly reduced ligand binding affinity
- Kd [4, 7]: > 10000 µM

B6: Tat: wild type HIV-1 Tat protein (SEQ ID NO:45) (protein)
chain: MEPVDPRLEPWKHPGSQPKTASNNCYCKRCCLHCQVCFTKKGLGISYGRKKRRQRRRAPQDSKTHQVSLSKQPASQPRGDPTGPKESKKKVERETETDPED
modifications: Human immunodeficiency virus type 1; Tat protein
- specific interaction with P/CAF in cells [5]: detected
- increase of Tat transactivation activity upon P/CAF stimulation [6]: ≤ 30 fold
